Like-named read-outs stand apart in the source and are kept apart here.
B1: Tel21 (ssDNA)
DNA: GGGTTAGGGTTAGGGTTAGGG
B2: Tel21 G4 (structured_DNA)
DNA: GGGTTAGGGTTAGGGTTAGGG

Legend:
Assay in all cases: EMSA
[1] = molecular target: CST (CTC1-STN1-TEN1) (human, UniProt Q2NKJ3;Q9H668;Q86WV5 1-1217;1-368;1-123)
[2] = molecular target: T1, RPA (UniProt P27694;P15927;P35244 1-616;1-270;1-121)
[3] = molecular target: T1, RPA; remark: listed apart in the source

T1 sequence (P27694 whole entry, chain 1 of 3): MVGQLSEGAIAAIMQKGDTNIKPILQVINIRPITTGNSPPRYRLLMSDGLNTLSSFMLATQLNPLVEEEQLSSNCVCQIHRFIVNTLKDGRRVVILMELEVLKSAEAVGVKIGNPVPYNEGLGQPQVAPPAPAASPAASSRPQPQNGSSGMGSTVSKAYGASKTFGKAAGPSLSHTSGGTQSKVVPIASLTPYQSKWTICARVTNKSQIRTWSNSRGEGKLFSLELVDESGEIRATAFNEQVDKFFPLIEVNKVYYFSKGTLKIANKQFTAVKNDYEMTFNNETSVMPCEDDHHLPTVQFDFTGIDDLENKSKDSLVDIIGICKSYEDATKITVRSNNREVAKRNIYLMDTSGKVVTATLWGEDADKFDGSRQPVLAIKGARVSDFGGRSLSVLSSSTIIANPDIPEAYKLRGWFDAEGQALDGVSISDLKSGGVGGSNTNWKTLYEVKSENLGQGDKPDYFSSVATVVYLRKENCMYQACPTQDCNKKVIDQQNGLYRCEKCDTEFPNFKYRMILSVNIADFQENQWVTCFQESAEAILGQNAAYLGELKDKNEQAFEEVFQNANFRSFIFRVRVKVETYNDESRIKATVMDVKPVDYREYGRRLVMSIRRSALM
T1 sequence (P15927 whole entry, chain 2 of 3): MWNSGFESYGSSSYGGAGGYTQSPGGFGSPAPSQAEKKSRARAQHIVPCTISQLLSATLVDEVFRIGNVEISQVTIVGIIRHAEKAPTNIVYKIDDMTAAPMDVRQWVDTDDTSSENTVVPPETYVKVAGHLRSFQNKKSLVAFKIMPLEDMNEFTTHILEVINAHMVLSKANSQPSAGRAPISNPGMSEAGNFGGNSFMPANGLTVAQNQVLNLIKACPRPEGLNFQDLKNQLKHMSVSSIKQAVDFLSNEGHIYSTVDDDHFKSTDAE
T1 sequence (P35244 whole entry, chain 3 of 3): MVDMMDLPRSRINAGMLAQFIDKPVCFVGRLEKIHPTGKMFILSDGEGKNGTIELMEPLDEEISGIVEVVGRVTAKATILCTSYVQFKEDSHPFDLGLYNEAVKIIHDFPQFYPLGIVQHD
Chain of CST (CTC1-STN1-TEN1) (Q2NKJ3 whole entry, chain 1 of 3): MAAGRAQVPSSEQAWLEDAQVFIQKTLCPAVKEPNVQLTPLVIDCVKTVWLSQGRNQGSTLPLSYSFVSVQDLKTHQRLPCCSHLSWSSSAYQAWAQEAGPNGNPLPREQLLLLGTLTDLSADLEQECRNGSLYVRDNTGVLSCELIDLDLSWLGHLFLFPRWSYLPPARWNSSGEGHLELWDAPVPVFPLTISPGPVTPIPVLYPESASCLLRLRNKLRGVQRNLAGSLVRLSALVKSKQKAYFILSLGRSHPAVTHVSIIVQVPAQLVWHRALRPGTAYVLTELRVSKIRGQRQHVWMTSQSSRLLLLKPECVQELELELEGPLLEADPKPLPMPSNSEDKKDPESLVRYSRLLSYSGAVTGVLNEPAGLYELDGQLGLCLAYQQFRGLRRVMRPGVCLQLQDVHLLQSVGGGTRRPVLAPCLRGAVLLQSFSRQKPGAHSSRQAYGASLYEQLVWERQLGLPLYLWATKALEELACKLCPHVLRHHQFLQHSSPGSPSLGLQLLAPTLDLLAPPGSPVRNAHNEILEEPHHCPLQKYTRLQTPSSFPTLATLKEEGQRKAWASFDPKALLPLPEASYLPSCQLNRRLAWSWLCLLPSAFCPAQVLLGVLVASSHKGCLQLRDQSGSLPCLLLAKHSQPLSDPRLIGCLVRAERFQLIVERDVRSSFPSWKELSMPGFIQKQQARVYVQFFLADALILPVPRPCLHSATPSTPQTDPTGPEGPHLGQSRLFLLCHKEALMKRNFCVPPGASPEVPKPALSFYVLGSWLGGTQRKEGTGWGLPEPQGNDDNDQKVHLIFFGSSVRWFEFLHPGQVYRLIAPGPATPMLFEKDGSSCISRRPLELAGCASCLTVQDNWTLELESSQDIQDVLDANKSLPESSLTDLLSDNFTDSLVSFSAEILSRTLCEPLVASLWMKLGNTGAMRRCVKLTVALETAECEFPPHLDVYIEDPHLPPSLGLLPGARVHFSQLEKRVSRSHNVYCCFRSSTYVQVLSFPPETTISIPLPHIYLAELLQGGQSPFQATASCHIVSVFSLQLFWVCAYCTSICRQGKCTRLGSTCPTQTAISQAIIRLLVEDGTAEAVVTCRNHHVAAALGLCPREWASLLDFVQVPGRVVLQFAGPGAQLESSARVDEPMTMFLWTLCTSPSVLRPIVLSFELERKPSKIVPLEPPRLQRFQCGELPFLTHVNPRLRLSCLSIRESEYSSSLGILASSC
Chain of CST (CTC1-STN1-TEN1) (Q9H668 whole entry, chain 2 of 3): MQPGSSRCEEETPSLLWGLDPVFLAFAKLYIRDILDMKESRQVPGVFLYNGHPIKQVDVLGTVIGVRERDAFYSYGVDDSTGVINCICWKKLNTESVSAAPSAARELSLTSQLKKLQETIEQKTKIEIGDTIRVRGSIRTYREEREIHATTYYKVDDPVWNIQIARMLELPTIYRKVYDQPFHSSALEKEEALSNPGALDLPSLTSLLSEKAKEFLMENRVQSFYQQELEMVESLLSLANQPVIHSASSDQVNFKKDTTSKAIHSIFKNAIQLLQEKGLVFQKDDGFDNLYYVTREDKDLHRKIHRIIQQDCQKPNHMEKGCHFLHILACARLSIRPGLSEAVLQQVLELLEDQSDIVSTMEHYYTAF
Chain of CST (CTC1-STN1-TEN1) (Q86WV5 whole entry, chain 3 of 3): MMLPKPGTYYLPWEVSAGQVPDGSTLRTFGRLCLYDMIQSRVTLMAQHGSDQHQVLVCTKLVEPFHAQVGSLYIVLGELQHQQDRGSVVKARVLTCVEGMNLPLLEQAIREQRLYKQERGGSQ

| Binder | Kd [1] [nM] | Kd [2] [nM] | Kd [3] [nM] |
| --- | --- | --- | --- |
| B1 | 1.3 | 1.9 | – |
| B2 | – | – | 5.5 |
